Laboratory results reported in paper PMC4424335 (The Journal of Biological Chemistry, 2015).
Peptide text beside a SMILES is read from it. * marks the point of attachment. Propyl(3-UDP) = O=c1ccn([C@@H]2O[C@H](COP(=O)(O)OP(=O)(O)OCCC*)[C@@H](O)[C@H]2O)c(=O)[nH]1

Key:
[1] = molecular target: TaOGA53 (Trichoplax O-GlcNAcase) (Trichoplax adhaerens, UniProt A0A0D5X1V2)
[2] = molecular target: T1, TaOGT (Trichoplax O-GlcNAc transferase) (Trichoplax adhaerens, UniProt A0A0D5X2K0); assay: fluorescence UDP-detection OGT assay, […] UDP-GlcNAc; assay type: biochemical
T1 construct: TaOGT, start identified by RACE, wild type, GST tag cleaved

[3] = substrate: CC(=O)N[C@H]1[C@@H](OP(=O)(O)OP(=O)(O)OC[C@H]2O[C@@H](n3ccc(=O)[nH]c3=O)[C@H](O)[C@@H]2O)O[C@H](CO)[C@@H](O)[C@@H]1O; assay: steady-state kinetics (Km), fluorescence UDP-detection assay; assay type: biochemical, Trichoplax adhaerens
Method: steady-state kinetics (Km), fluorescence UDP-detection assay on TaOGT (Trichoplax O-GlcNAc transferase) | The Km for UDP-GlcNAc was measured in the presence of excess peptide substrate

purified protein = substrate: CC(=O)N[C@H]1[C@H](Oc2ccc3c(C)cc(=O)oc3c2)O[C@H](CO)[C@@H](O)[C@@H]1O; assay: purified protein

## CCNC1=N[C@@H]2[C@@H](O)[C@H](O)[C@@H](CO)O[C@@H]2S1 [Thiamet G]
[1]
  IC50: c, IC50 of Thiamet G and GlcNAcstatin C for TaOGA53.

## CC(=O)N[C@H](C(=O)N[C@H](C(=O)N1CCC[C@H]1C(=O)N[C@H](C(=O)N[C@@H](COCCCOP(=O)(O)OP(=O)(O)OC[C@H]1O[C@@H](n2ccc(=O)[nH]c2=O)[C@H](O)[C@@H]1O)C(=O)N[C@H](C(=O)N[C@@H](C)C(N)=O)[C@@H](C)O)C(C)C)[C@@H](C)O)C(C)C [Goblin 1] (Ac-VTPVS(Propyl(3-UDP))TA-NH2)
[2]
  IC50: 27 µM

B1: TaOGT (Trichoplax O-GlcNAc transferase) (Trichoplax adhaerens) (protein)
chain: MVDQTNGIAEIAHREYQQGNYERAEHLAMEWWRHEQDNVGVLLLLSSIHFQTRKLDKSAHFCNMAIKSNPALSEAYSNLGNVFKERNQLKEALENYRYALRLRPDFIDGYINLASALVAAQDLEGAVKAYATALQYNPNLYCVRNDLGNLLKALGRLEEAKACYLKAIETQPNFAVAWSNLGCVFNSQGEIWLAIHHFEKAVTLDNGFLDAYINLGNVLKEARIFDRASTAYLRALNLSPNNPTVLGNLACVYYEQGLMDLAVDTYKRAIELQPNFPDAYCNLANALKELGKVTEAEECYNTALSLCPTHADSLNNLANIKREKGQIGEASKLYRKALEIFPEFAAAHSNLASVLQQQGKLQEALAHYKEAIRINPSFADAYSNMGNTLKEMQDVQGAIQCYTRAIQINPNFADAHSNLASIHKDSGSIPEAIANYRTALKLKPDFPDAFCNLAHCYQIICDWADYELRMKRLVSIVQDQLEKGRLPSVHPHHTMLYPLDGHTRKAISNRHGNLCLDRTATIHKPPYKFTPNIILPNGKLKIGYVSSDFGNHPTSHLMQSIPKLHDRSRVEVYCYSLTADDGTSFRKEISRGSDHFVDLSQVQCHGDAADRINADGIHILLNMNGYTKGARNEIFALRPAPIQMMWLGYPGTSGAAFMDYIITDKITSPMEYADHYSEKLAFLPNSFFIGDHRHMFAHLSVRATDNGRDRVINLSEGSAPDLDMKDIIEAQLREALSKIDNTSSHINTSTNLISNGTLGSNAVIPNGGPIINGNGDSVPNGPGVNVPSGMVLTTRAQYGLPSKAIIYCNFNQLYKIDPKILETWVRILKRVPNSILWLLRFPAAGEAMLKNTILKMGLPADRVVFTNVAPKEEHVRRGQLADICLDTPMCNGHTTGMDVLWAGVPMITMPKETLASRVASSQLTSLGVSELIAKDLTEYEDVAVKYGSDITRLRKLQDKIWQLRHKSTLFNTKTYCQNLEELYVKVWDRYSQGLEPDHIIY
notes: TaOGT, start identified by RACE, wild type, GST tag cleaved
[3]
  Km: 13 ± 2 µM

B2: TaOGA53 (Trichoplax O-GlcNAcase) (Trichoplax adhaerens) (protein)
chain: MNHNFICGVIEGFYGLPWSFTDRLDLFERLKKWGLNTYIYGPKDDYKHRSAWRDLYTETEADLFRALIKNAIVNDVIFVYAISPGNDICYSNASDIAALKDKLDQVRSFGCEAFAVFFDDIYCTMSKKDKGNFASFADAHVYIANLIYEHLNRPAVFMFCPTEYCATRAVPSVENSPYLTVIGDKLHPDVKVLWTGPDVISPFISVDSILALQEILKRKPIIWDNIHANDYDHSRIFLGPYQDRPIELAKVLSGVITNPNCEYRMNYVPIRTFSLWCQSQDKDDVQYSAESALTCAVEEWVKEFSVPSQLNIDQENIAVTMKDGIAKKDMTVTTEHLLLLIDIFYLPHKYGRHSIHLINMARWLQVNSNMITSTKETDKATSPSVKMWFQVFNEFNSLCQGILLLYDYLTMCPNQAISRELNSYIINLKKIFHILSLHINSLGTEATKHSSDATDTVDSSDAVVYGGILGEVVKIIKEGSDGDLKSSQQQVTACAIEVSLKNSDANMGADIPTNATVIG
Purified protein
  Km: 78 ± 5 µM

B3: TaOGA54 (Trichoplax O-GlcNAcase) (Trichoplax adhaerens) (protein)
chain: MTSDKFLSGVVEGFYGKPWSFEQRKTLFSNMAKWGLNTYMYGPKDDEKHRAAWKQAYSKREGDSLRALIRAAEESGILFIYAISPGVDITYSSNRDMKFLKDKLDQIRNFGCNSFAIFFDDIDTVMCLQDQEEFESFAAAQVEVTNEIYKYLGMPANFLFCPTEYCAARADPNVKESKYLVTVGTGLHSDIHIMWTGPKVVSNKISVESILELQTVLRRKPVIWDNIHANDYEQGRLNLGPYDCRPAELMESLNGIFTNPNCEFELNYVPIRTFSLWCQSKRTRFNYDVEKALEQSIREWTEEFCIPRLPDGYLLEADTSDTNVNEYMDDEMQSDSRPISPANSMETDKDELTVKDIRLLVELFYLPQKHGKTANDLLAQAKWLKSNFRIAALSRKPNDTSEGSNLDEHNTDYIAAKEWDKRFSKFRSICQIIHQFGDRLMTCRNRVLLYEVYNYVADLCGILYHLISRIHSLANPEKLEKRSDSEQSSFRYGGFVGDIHRLIVSTDEYEESTLKNSDAYVIRPFMPSDEETLYDLCLKSCIENSNGDEIYKREPRIIGDRDLGAYIYLHPEYIYVLEDDRDKICGYLCGALDSKQFYERYESEWLTQIRDRHPQPENDIASWTPEEIVANSFYNFTPPTDVSVLYLSHLEARFDSSVPEKVIKRIIRFILEQLKAKGSYGASMLIDSWRTNLRRIFTSMGFVDLQEYSWMSEQKCMIAIKLM
Purified protein
  Km: 2000 ± 100 µM
